The subject of the data set is Escherichia coli TOP10. The data set can be described thus: shrunken log2 fold change of peptide-encoding DNA abundance (4.5 h post-induction vs induction); higher = less antimicrobial activity (less host growth inhibition). The settings on record: time post-induction: 4.5 h; library: site-saturation at positions 5, 18, 19, 20.
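Further: peptides expressed intracellularly from a pBAD plasmid library in pooled LB shake-flask culture, induced with 0.3% L-arabinose, DNA abundance read by NGS, three biological replicates, DESeq2 with apeglm shrinkage.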

In the case of RRIRIRPPRLPRPRPRPKRAPRP, the “shrunken log2 fold change” value is 0.283.

Turning to RRIRLRPPRLPRPRPRPIYQPRP, the “shrunken log2 fold change” value is -0.385.

On to RRIRARPPRLPRPRPRPYMCPRP, for which the “shrunken log2 fold change” value was -0.773.

In the case of RRIRCRPPRLPRPRPRPKGHPRP, the “shrunken log2 fold change” value is -0.17.

For RRIRARPPRLPRPRPRPHDVPRP, the “shrunken log2 fold change” value is 0.0276.

Consider RRIRDRPPRLPRPRPRPVQYPRP, for which the “shrunken log2 fold change” value was -0.0992.

As to RRIRIRPPRLPRPRPRPRVVPRP, the “shrunken log2 fold change” value came to 0.00259.

For RRIRMRPPRLPRPRPRPLDPPRP, the “shrunken log2 fold change” value stood at 0.146.

As for RRIRPRPPRLPRPRPRPSNHPRP, the “shrunken log2 fold change” value is -0.497.

With RRIRVRPPRLPRPRPRPPRGPRP, the “shrunken log2 fold change” value came out at 0.665.

Consider RRIRPRPPRLPRPRPRPWPEPRP, for which the “shrunken log2 fold change” value was found to be 0.0423.

For RRIRIRPPRLPRPRPRPQRQPRP, the “shrunken log2 fold change” value is 0.098.

With RRIRDRPPRLPRPRPRPHRVPRP, the “shrunken log2 fold change” value is -0.0141.

For the sequence RRIRRRPPRLPRPRPRPQDTPRP, the “shrunken log2 fold change” value is -0.321.

In the case of RRIRLRPPRLPRPRPRPSYKPRP, the “shrunken log2 fold change” value is -0.456.

Turning to RRIRFRPPRLPRPRPRPYDLPRP, the “shrunken log2 fold change” value was -1.02.

Consider RRIRIRPPRLPRPRPRPEGQPRP, for which the “shrunken log2 fold change” value is -0.0492.

In the case of RRIRGRPPRLPRPRPRPINAPRP, the “shrunken log2 fold change” value came to 0.288.

Consider RRIRVRPPRLPRPRPRPVMEPRP, for which the “shrunken log2 fold change” value is -0.186.

For the sequence RRIRKRPPRLPRPRPRPKRLPRP, the “shrunken log2 fold change” value is 0.0257.

For the sequence RRIRERPPRLPRPRPRPCYEPRP, the “shrunken log2 fold change” value was -0.0528.

For RRIRNRPPRLPRPRPRPWYDPRP, the “shrunken log2 fold change” value is -0.0695.

Regarding RRIRCRPPRLPRPRPRPLYLPRP, the “shrunken log2 fold change” value was -0.493.

Consider RRIRSRPPRLPRPRPRPKEYPRP, for which the “shrunken log2 fold change” value is 0.167.

Consider RRIRHRPPRLPRPRPRPYMVPRP, for which the “shrunken log2 fold change” value is -0.0357.

With RRIRDRPPRLPRPRPRPITIPRP, the “shrunken log2 fold change” value is -0.175.

As to RRIRTRPPRLPRPRPRPEKEPRP, the “shrunken log2 fold change” value amounted to 0.0172.

As to RRIRRRPPRLPRPRPRPNEVPRP, the “shrunken log2 fold change” value is -0.0332.

Consider RRIRVRPPRLPRPRPRPQMYPRP, for which the “shrunken log2 fold change” value is -0.436.

Take RRIRSRPPRLPRPRPRPRRWPRP: the “shrunken log2 fold change” value was 0.556.

For the sequence RRIRSRPPRLPRPRPRPDDPPRP, the “shrunken log2 fold change” value was 0.0348.

RRIRTRPPRLPRPRPRPAEQPRP: the “shrunken log2 fold change” value is 0.0493.

Consider RRIRTRPPRLPRPRPRPKSKPRP, for which the “shrunken log2 fold change” value turned out to be 0.0217.

In the case of RRIRSRPPRLPRPRPRPEIIPRP, the “shrunken log2 fold change” value was -0.0448.

In the case of RRIRMRPPRLPRPRPRPHTTPRP, the “shrunken log2 fold change” value was -0.0908.

Take RRIRERPPRLPRPRPRPINSPRP: the “shrunken log2 fold change” value was -0.157.

In the case of RRIRLRPPRLPRPRPRPHKMPRP, the “shrunken log2 fold change” value is -0.355.

Take RRIRCRPPRLPRPRPRPGWFPRP: the “shrunken log2 fold change” value is 0.0546.

With RRIRWRPPRLPRPRPRPTFLPRP, the “shrunken log2 fold change” value turned out to be 0.146.

Take RRIRTRPPRLPRPRPRPDKLPRP: the “shrunken log2 fold change” value was 0.0136.

With RRIRIRPPRLPRPRPRPNTVPRP, the “shrunken log2 fold change” value was -1.09.

Regarding RRIRGRPPRLPRPRPRPIFEPRP, the “shrunken log2 fold change” value is 0.357.

For RRIRWRPPRLPRPRPRPGMSPRP, the “shrunken log2 fold change” value came to 0.893.

Turning to RRIRWRPPRLPRPRPRPGKTPRP, the “shrunken log2 fold change” value stood at 0.0109.

Regarding RRIRGRPPRLPRPRPRPCAAPRP, the “shrunken log2 fold change” value was 1.89.

As to RRIRARPPRLPRPRPRPDIGPRP, the “shrunken log2 fold change” value is 0.0329.

Consider RRIRVRPPRLPRPRPRPVELPRP, for which the “shrunken log2 fold change” value turned out to be 0.104.

In the case of RRIRVRPPRLPRPRPRPSQIPRP, the “shrunken log2 fold change” value was -0.206.

RRIRTRPPRLPRPRPRPWCWPRP: the “shrunken log2 fold change” value is -0.0632.

RRIRGRPPRLPRPRPRPFTSPRP: the “shrunken log2 fold change” value was -0.0475.

Regarding RRIRSRPPRLPRPRPRPGFIPRP, the “shrunken log2 fold change” value was -0.205.

For RRIRCRPPRLPRPRPRPRDKPRP, the “shrunken log2 fold change” value was 0.0174.

For the sequence RRIRRRPPRLPRPRPRPCYSPRP, the “shrunken log2 fold change” value is -0.00167.

Consider RRIRCRPPRLPRPRPRPYAEPRP, for which the “shrunken log2 fold change” value was -0.0578.

As to RRIRFRPPRLPRPRPRPHDTPRP, the “shrunken log2 fold change” value was -0.535.

Consider RRIRARPPRLPRPRPRPHGNPRP, for which the “shrunken log2 fold change” value was -0.0231.

As for RRIRRRPPRLPRPRPRPYWTPRP, the “shrunken log2 fold change” value stood at 0.000827.

With RRIRYRPPRLPRPRPRPVHMPRP, the “shrunken log2 fold change” value is -0.0179.

On to RRIRPRPPRLPRPRPRPDVCPRP, for which the “shrunken log2 fold change” value was -0.00807.

RRIRGRPPRLPRPRPRPMGNPRP: the “shrunken log2 fold change” value was found to be 0.124.

Turning to RRIRVRPPRLPRPRPRPHFYPRP, the “shrunken log2 fold change” value was -0.173.

Consider RRIRLRPPRLPRPRPRPNYNPRP, for which the “shrunken log2 fold change” value is -0.74.

Turning to RRIRYRPPRLPRPRPRPHPDPRP, the “shrunken log2 fold change” value is -0.299.

For the sequence RRIRLRPPRLPRPRPRPSTGPRP, the “shrunken log2 fold change” value was -0.221.

As for RRIRGRPPRLPRPRPRPFMDPRP, the “shrunken log2 fold change” value was -0.000933.

As to RRIRLRPPRLPRPRPRPRPLPRP, the “shrunken log2 fold change” value came to 0.579.

As to RRIRRRPPRLPRPRPRPFWDPRP, the “shrunken log2 fold change” value is -0.0897.

As to RRIRWRPPRLPRPRPRPLMSPRP, the “shrunken log2 fold change” value was -0.0663.

Turning to RRIRARPPRLPRPRPRPDVIPRP, the “shrunken log2 fold change” value amounted to 0.0534.

Take RRIRDRPPRLPRPRPRPKGCPRP: the “shrunken log2 fold change” value was found to be 0.0262.

Turning to RRIRRRPPRLPRPRPRPMLEPRP, the “shrunken log2 fold change” value came out at 0.0718.

Regarding RRIRCRPPRLPRPRPRPMGIPRP, the “shrunken log2 fold change” value is 0.00755.

Turning to RRIRMRPPRLPRPRPRPTISPRP, the “shrunken log2 fold change” value was 0.0688.

Regarding RRIRARPPRLPRPRPRPTVHPRP, the “shrunken log2 fold change” value was 2.45.

With RRIRARPPRLPRPRPRPQEYPRP, the “shrunken log2 fold change” value was 0.0643.

For RRIRDRPPRLPRPRPRPHTDPRP, the “shrunken log2 fold change” value is -0.623.

Regarding RRIRQRPPRLPRPRPRPADYPRP, the “shrunken log2 fold change” value was -0.155.

Turning to RRIRDRPPRLPRPRPRPPCPPRP, the “shrunken log2 fold change” value was found to be 0.173.

For the sequence RRIRRRPPRLPRPRPRPVWFPRP, the “shrunken log2 fold change” value worked out at 0.0857.

With RRIRRRPPRLPRPRPRPIMWPRP, the “shrunken log2 fold change” value is 0.121.

Turning to RRIRPRPPRLPRPRPRPYRWPRP, the “shrunken log2 fold change” value is 0.087.

Turning to RRIRMRPPRLPRPRPRPYKMPRP, the “shrunken log2 fold change” value is -0.277.

As to RRIRTRPPRLPRPRPRPKLGPRP, the “shrunken log2 fold change” value was 0.106.

As for RRIRTRPPRLPRPRPRPYCIPRP, the “shrunken log2 fold change” value was -0.205.

Regarding RRIRQRPPRLPRPRPRPKMKPRP, the “shrunken log2 fold change” value is -0.08.

Turning to RRIRIRPPRLPRPRPRPTLWPRP, the “shrunken log2 fold change” value worked out at 0.22.

Consider RRIRRRPPRLPRPRPRPSDAPRP, for which the “shrunken log2 fold change” value is -0.0697.

As for RRIRLRPPRLPRPRPRPPMRPRP, the “shrunken log2 fold change” value stood at 1.

As to RRIRERPPRLPRPRPRPKQCPRP, the “shrunken log2 fold change” value was -0.354.

As for RRIRQRPPRLPRPRPRPCVTPRP, the “shrunken log2 fold change” value was -0.141.

RRIRKRPPRLPRPRPRPLSYPRP: the “shrunken log2 fold change” value is -0.0509.

As to RRIRRRPPRLPRPRPRPHNFPRP, the “shrunken log2 fold change” value was -0.0578.

For the sequence RRIRQRPPRLPRPRPRPTSEPRP, the “shrunken log2 fold change” value stood at 0.015.

As for RRIRFRPPRLPRPRPRPNNNPRP, the “shrunken log2 fold change” value was -0.714.

As for RRIRVRPPRLPRPRPRPNNEPRP, the “shrunken log2 fold change” value was -0.301.

As for RRIRHRPPRLPRPRPRPYTKPRP, the “shrunken log2 fold change” value was 0.0561.

For RRIRERPPRLPRPRPRPMLRPRP, the “shrunken log2 fold change” value was -0.0352.

As for RRIRYRPPRLPRPRPRPVHQPRP, the “shrunken log2 fold change” value was -0.0229.

In the case of RRIRMRPPRLPRPRPRPHMFPRP, the “shrunken log2 fold change” value was -0.222.

Consider RRIRTRPPRLPRPRPRPSCHPRP, for which the “shrunken log2 fold change” value was -0.783.

On to RRIRRRPPRLPRPRPRPDPQPRP, for which the “shrunken log2 fold change” value is 1.23.

Regarding RRIRRRPPRLPRPRPRPCGGPRP, the “shrunken log2 fold change” value amounted to 0.686.

On to RRIRWRPPRLPRPRPRPLHNPRP, for which the “shrunken log2 fold change” value was -0.116.

Take RRIRLRPPRLPRPRPRPWYFPRP: the “shrunken log2 fold change” value was -0.231.

RRIRNRPPRLPRPRPRPSPKPRP: the “shrunken log2 fold change” value was 0.191.

As to RRIRPRPPRLPRPRPRPNAKPRP, the “shrunken log2 fold change” value is -0.0129.

Consider RRIRARPPRLPRPRPRPSYKPRP, for which the “shrunken log2 fold change” value is -0.305.

With RRIRVRPPRLPRPRPRPALSPRP, the “shrunken log2 fold change” value stood at 0.414.

On to RRIRMRPPRLPRPRPRPHRVPRP, for which the “shrunken log2 fold change” value was -0.0492.

On to RRIRKRPPRLPRPRPRPCFYPRP, for which the “shrunken log2 fold change” value is -0.115.

On to RRIRNRPPRLPRPRPRPNVTPRP, for which the “shrunken log2 fold change” value is -0.361.

As to RRIRGRPPRLPRPRPRPNLLPRP, the “shrunken log2 fold change” value was 0.485.

For RRIRYRPPRLPRPRPRPTQTPRP, the “shrunken log2 fold change” value is 0.0249.

As to RRIRHRPPRLPRPRPRPFRRPRP, the “shrunken log2 fold change” value amounted to 0.0303.

For RRIRWRPPRLPRPRPRPVICPRP, the “shrunken log2 fold change” value is -0.151.

On to RRIRTRPPRLPRPRPRPYPNPRP, for which the “shrunken log2 fold change” value is -0.414.

As to RRIRNRPPRLPRPRPRPGNGPRP, the “shrunken log2 fold change” value is -0.462.

For RRIRQRPPRLPRPRPRPSGDPRP, the “shrunken log2 fold change” value is -0.00374.

With RRIRKRPPRLPRPRPRPMPVPRP, the “shrunken log2 fold change” value is -0.00341.

As for RRIRARPPRLPRPRPRPFPGPRP, the “shrunken log2 fold change” value is -0.116.

Turning to RRIRNRPPRLPRPRPRPREIPRP, the “shrunken log2 fold change” value worked out at 0.0831.

On to RRIRERPPRLPRPRPRPFRMPRP, for which the “shrunken log2 fold change” value is -0.3.

With RRIRNRPPRLPRPRPRPQWWPRP, the “shrunken log2 fold change” value was found to be 0.034.

Turning to RRIRGRPPRLPRPRPRPLYVPRP, the “shrunken log2 fold change” value stood at 0.0628.

RRIRLRPPRLPRPRPRPRAVPRP: the “shrunken log2 fold change” value turned out to be 0.821.

(Values after the supplement of paper PMC9112550, “Optimization of the antimicrobial peptide Bac7 by deep mutational scanning” (BMC Biology, 2022).)
